The source of these data is patent US6521602 (GPC BIOTECH, dated 2003).

The target in this assay is CDK4/cyclin D1 complex (UniProt P11802 1-303; P24385 1-295). Put plainly: cell-based or functional assay.
CDK4/cyclin D1 complex, sequence (P11802 whole entry, chain 1 of 2): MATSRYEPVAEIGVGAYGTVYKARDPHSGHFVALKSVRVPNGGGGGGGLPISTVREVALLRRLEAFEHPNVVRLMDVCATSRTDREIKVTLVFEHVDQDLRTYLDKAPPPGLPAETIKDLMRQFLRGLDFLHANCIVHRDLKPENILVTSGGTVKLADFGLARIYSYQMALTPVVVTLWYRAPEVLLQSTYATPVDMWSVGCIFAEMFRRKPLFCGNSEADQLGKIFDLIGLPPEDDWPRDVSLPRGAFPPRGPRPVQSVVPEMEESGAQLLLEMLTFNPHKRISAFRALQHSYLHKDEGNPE
CDK4/cyclin D1 complex, sequence (P24385 whole entry, chain 2 of 2): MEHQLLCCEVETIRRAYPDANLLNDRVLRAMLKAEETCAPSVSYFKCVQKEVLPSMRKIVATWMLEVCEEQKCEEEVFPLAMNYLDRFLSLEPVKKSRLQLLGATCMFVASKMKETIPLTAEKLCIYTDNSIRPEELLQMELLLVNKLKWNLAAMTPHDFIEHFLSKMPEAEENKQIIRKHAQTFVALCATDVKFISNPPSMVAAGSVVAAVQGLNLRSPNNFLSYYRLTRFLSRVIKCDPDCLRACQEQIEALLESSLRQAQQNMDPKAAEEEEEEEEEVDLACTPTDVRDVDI

Turning to human p27 (from UniProt P46527 1-198), the IC50, in vitro kinase activity was 63 nM.

B1: human p16 (other)
chain: MEPAAGSSMEPSADWLATAAARGRVEEVRALLEAGALPNAPNSYGRRPIQVMMMGSARVAELLLLHGAEPNCADPATLTRPVHDAAREGFLDTLVVLHRAGARLDVRDAWGRLPVDLAEELGHRDVARYLRAAAGGTRGSNHARIDAAEGPSDIPD
Regarding B1, the “IC50, in vitro kinase activity” value turned out to be 250 nM.
